Laboratory results from patent US20220273720A1.

Target: CD3 on non-edited CD3+ T cells of a human donor (human) (UniProt P07766)
Test: cell-based or functional assay

CD3 on non-edited CD3+ T cells of a human donor (human), sequence (P07766 23-207, chain 1 of 3): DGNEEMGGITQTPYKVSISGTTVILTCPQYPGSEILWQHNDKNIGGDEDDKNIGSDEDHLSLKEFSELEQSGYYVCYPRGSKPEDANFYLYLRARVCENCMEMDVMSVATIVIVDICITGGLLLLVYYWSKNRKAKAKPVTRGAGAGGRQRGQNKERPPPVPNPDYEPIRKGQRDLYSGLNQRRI
CD3 on non-edited CD3+ T cells of a human donor (human), sequence (P09693 23-182, chain 2 of 3, further chain): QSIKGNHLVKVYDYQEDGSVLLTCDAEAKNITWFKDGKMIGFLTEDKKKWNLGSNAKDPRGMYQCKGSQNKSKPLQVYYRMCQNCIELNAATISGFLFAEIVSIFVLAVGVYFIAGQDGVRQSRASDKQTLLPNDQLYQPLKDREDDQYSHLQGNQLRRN
CD3 on non-edited CD3+ T cells of a human donor (human), sequence (P04234 22-171, chain 3 of 3, further chain): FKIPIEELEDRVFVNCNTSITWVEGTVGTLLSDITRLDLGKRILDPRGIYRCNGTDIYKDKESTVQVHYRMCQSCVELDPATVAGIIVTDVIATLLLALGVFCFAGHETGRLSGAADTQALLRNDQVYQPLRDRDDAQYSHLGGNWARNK

foralumab biosimilar (Creative Biolabs) (antibody)
percent killing in a complement-dependent cytotoxicity (CDC) assay on non-edited CD3+ T cells, 24 h, 30% human serum, antibody at 30-4000 ng/ml: 65%
